US20080131465A1, “Group a Streptococcus Crge Protein” (priority 2004, published 2008)

T1: LL-37 (Homo sapiens, UniProt P49913)
T1 construct: release the mature C-terminal antimicrobial peptide
T1 sequence (P49913 134-170 limits assumed): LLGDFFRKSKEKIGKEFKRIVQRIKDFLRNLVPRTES

B1: Spy1542: Streptococcus pyogenes protein encoded by crgE (spy1542), cloned, expressed as native protein and purified; confers resistance to cathelicidins (protein)
chain: MESYITPKHQEACVAAIKQIVSYPSVCHEGENGTPFGQAIQDILEATLDLCQGLGFHTYIDPEGYYGYAELGDQKEVLAILCHLDVVPEGDRQLWKTDPFDCVEADGCLFGRGTQDDKGPTMMALFATKALIDAGVTFNKRIRFIFGTDEETLWRCMNRYNDVEEQATFGFAPDSSFPLTYAEKGLLQAKLVGKGSDKLSLEIGQAYNVVPARASYQGDKLEALQKELDKLGFEYVVKEGELTVYGLAQHAKDAPDGINAMIRLAKALVVLEPNKTLDFLANVIDEDGRALNIFGRIEDEPSGKLSFNAAGLTLTKDKAEIRLDIRIPVLADKEKLVQQLSQKAQEYGLTYEEFDYLAPLYVPLDSELVTTLLSVYRKKTGDQSPAQSSGGATFARTMKNCVAFGALFPDAVQTEHQENEHIVLADAYRAMDIYAEAIYRLTR
modifications: Streptococcus pyogenes
notes: Streptococcus pyogenes protein encoded by crgE (spy1542), cloned, expressed as native protein and purified; confers resistance to cathelicidins

Columns and labels:
Streptococcus pneumoniae = test: antimicrobial assay on Streptococcus pneumoniae; assay type: cell-based
Experimental: (§1) The mutant was obtained using allelic exchange gene replacement mutagenesis. Positive clones were confirmed by PCR and used for further experiments. Quantitative real time PCR confirmed the absence of crgR mRNA in the mutant. ΔcrgR mutant cathelicidin resistance was tested in a bacterial killing assay. Bacteria were grown in THB to OD600 0.2 and diluted in […] Tris-HCl, pH7.5, containing 5 mM glucose. 1 ml of bacteria (˜10^6 cfu) were incubated together with different concentrations of cathelicidins for 1 hour at 37° C. with no agitation. The bactericidal activity was assessed by plating serial dilutions of the incubation mixtures on THY-blood agar.
In order to see if a similar mechanism of action was found in other bacteria encoding heterologous proteins, the antimicrobial assay was carried out as described above, except using Streptococcus pneumoniae. […] The experiment was repeated by adding 70 μg of native Spy1542 in addition to 0.4 μM, 0.8 μM or 1.6 μM of LL-37. In this second experiment, 100% survival at 0.4 μM was noted. Therefore Spy1542 appears to be able to inhibit cathelicidin action also in heterologous systems

GAS strain SF370 WT = assay type: cell-based, Streptococcus pyogenes; conditions: 1 hour at 37° C., ~10^6 cfu
Experimental: as §1

[1] = tested on: ΔcrgR mutant of GAS strain SF370; assay type: cell-based, Streptococcus pyogenes; conditions: 1 hour at 37° C., ~10^6 cfu
Experimental: as §1

[2] = tested on: WT and Δspy1542 mutant strains; test: FACS analysis of LL-37 localised on the bacterial surface; assay type: cell-based, Streptococcus pyogenes; conditions: 0.8 μM LL-37; WT versus Δspy1542 mutant; 5 or 10 min at 37° C.
Experimental: An experiment was carried out to see if LL-37 bound to the surface of the bacteria. 0.8 μM LL-37 was added to the bacteria in a method similar to that for the bacterial killing assay. The amount of LL-37 localised on the bacterial surface was then compared for WT and Δspy1542 mutant strains by FACS analysis. […] This “protective” effect also increases with time. The WT strains therefore appear to be shielded against LL-37.

LL-37 = biological target: T1, LL-37; test: mass spectrometry of LL-37 in supernatant after Spy1542 treatment; conditions: WT strain, 0.4 μM LL-37, after 30 minutes
Experimental: Spy1542 was therefore used to treat the WT strain challenged with 0.4 μM LL-37 in a process similar to the bacterial killing assay described above. After 30 minutes, the bacteria were pelleted and the supernatant was analysed. It was discovered by mass spectrometry that the LL-37 in the supernatant was unmodified by the action of Spy1542 (FIG. 13).

[3] = tested on: bacteria challenged with LL-37; test: pre-treatment of bacteria with Spy1542, washing, then LL-37 challenge; assay type: cell-based, Streptococcus pyogenes; conditions: Spy1542 added, bacteria pelleted, washed, resuspended; then 0.4 μM LL-37
Experimental: A further experiment was therefore carried out to confirm that the effect of Spy1542 was indirect. Spy1542 was added to the bacteria. The bacteria were then pelleted, washed and resuspended. 0.4 μM LL-37 was then added to the suspension.

[4] = tested on: Wild-type, ΔcrgR and ΔcrgR/Δspy1542-43 strains challenged with cathelicidin; test: bacterial killing assay with purified Spy1542 added to the medium; assay type: cell-based, Streptococcus pyogenes; conditions: different concentrations of purified Spy1542
Experimental: The involvement of Spy1542 in the resistance mechanism to antimicrobial peptides was investigated further by cloning and expressing Spy1542 as a native protein. The expressed protein was purified by using a Q sepharose column followed by Cu chelating and finally, gel filtration (FIG. 7). The purified protein was successively used to study its effect when added to the medium in bacterial-killing assays.
Wild-type; ΔcrgR and ΔcrgR/Δspy1542-43 strains were challenged with 0.4 μM LL-37 or CRAMP, and added with different concentrations of the purified protein.
In addition, Spy1542 protein was also able to enhance in a dose dependent manner the survival rate of the ΔcrgR mutant (FIG. 8a).

Row | Molecule | killing of bacteria (Streptococcus pneumoniae; increasing concentrations of LL-37) | concentration necessary to kill 50% of bacterial cells (LD50) (GAS strain SF370 WT) [µM] | concentration necessary to kill 50% of bacterial cells (LD50) [1] [µM] | amount of LL-37 localised on the bacterial surface [2] | survival (Streptococcus pneumoniae; 70 μg native Spy1542 added with 0.4 μM LL-37) [%] | modification of LL-37 in the supernatant by Spy1542 (LL-37) | protective effect against LL-37 after pre-treatment and washing [3] | inhibition of CRAMP bactericidal activity ([4]; 0.4 μM CRAMP) | inhibition of LL-37 action (number of colonies, survival rate) ([4]; 0.4 μM LL-37)
1 | CC[C@H](C)[C@H](NC(=O)[C@H](CCCCN)NC(=O)[C@H](CCC(=O)O)NC(=O)[C@H](CCCCN)NC(=O)[C@H](CO)NC(=O)[C@H](CCCCN)NC(=O)[C@H](CCCNC(=N)N)NC(=O)[C@H](Cc1ccccc1)NC(=O)[C@H](Cc1ccccc1)NC(=O)[C@H](CC(=O)O)NC(=O)CNC(=O)[C@H](CC(C)C)NC(=O)[C@@H](N)CC(C)C)C(=O)NCC(=O)N[C@@H](CCCCN)C(=O)N[C@@H](CCC(=O)O)C(=O)N[C@@H](Cc1ccccc1)C(=O)N[C@@H](CCCCN)C(=O)N[C@@H](CCCNC(=N)N)C(=O)N[C@H](C(=O)N[C@H](C(=O)N[C@@H](CCC(N)=O)C(=O)N[C@@H](CCCNC(=N)N)C(=O)N[C@H](C(=O)N[C@@H](CCCCN)C(=O)N[C@@H](CC(=O)O)C(=O)N[C@@H](Cc1ccccc1)C(=O)N[C@@H](CC(C)C)C(=O)N[C@@H](CCCNC(=N)N)C(=O)N[C@@H](CC(N)=O)C(=O)N[C@@H](CC(C)C)C(=O)N[C@H](C(=O)N1CCC[C@H]1C(=O)N[C@@H](CCCNC(=N)N)C(=O)N[C@H](C(=O)N[C@@H](CCC(=O)O)C(=O)N[C@@H](CO)C(=O)O)[C@@H](C)O)C(C)C)[C@@H](C)CC)C(C)C)[C@@H](C)CC [LL-37] | shown to kill the bacteria | 0.103 | 0.28 | WT strain had less LL-31 on the bacterial surface | – | – | – | – | –
2 | B1 | – | – | – | – | 100 | unmodified | protective effect of Spy1542 was maintained and that it was dose dependent | inhibited cathelicidin bactericidal activity in a dose-dependent fashion | inhibits LL-37 action in a dose dependent manner
